Data reported in patent US8012929B2, “Peptides directed for diagnosis and treatment of amyloid-associated diseases” (Tel Aviv University Future Technology Development L.P., priority 2002, dated 2011).
Ends that are not written are not given here.

Experiments:
Format in all cases: physicochemical
[1] = Transmission electron microscopy of aged peptides (Example 10); conditions: for fibrilar supramolecular ultrastructures by electron microscopy: peptides derived from amyloid proteins, mild conditions
Description: Transmission Electron Microscopy—A 10 μL sample of 8 mg/ml peptide solution in 10 mM Tris buffer, pH 7.2 aged for at least one day was placed on 400-mesh copper grids (SPI supplies, West Chester Pa.) covered by carbon-stabilized Formvar film. Following 1 minute, excess fluid was removed, and the grid was then negatively stained with 2% uranyl acetate in water for another two minutes. Samples were viewed in a JEOL 1200EX electron microscope operating at 80 kV.

[2] = Congo Red staining and birefringence (Example 9)
Description: Congo Red Staining and Birefringence—A 10 μL suspension of 8 mg/ml peptide solution in 10 mM Tris buffer, pH 7.2 aged for at least one day was allowed to dry overnight on a glass microscope slide. Staining was performed by the addition of a 10 μL suspension of saturated Congo Red (CR) and NaCl in 80% ethanol (v/v) solution as previously described [Puchtler (1966) Supra]. The solution was filtered via 0.45 μm filter. The slide was then dried for few hours. Birefringence was determined with a SZX-12 Stereoscope (Olympus, Hamburg, Germany) equipped with cross polarizers.

[3] = Kinetic aggregation assay, turbidity at 405 nm (Example 8)
Description: Kinetic Aggregation Assay—freshly prepared peptide stock solutions were generated by dissolving the lyophilized form of the peptides in dimethyl sulfoxide (DMSO) at a concentration of 100 mg/ml. To avoid any pre-aggregation, fresh stock solutions were prepared for each experiment. […] Turbidity data were collected at 405 nm. Buffer solution containing the same amount of DMSO as the tested samples was used as blank, which was subtracted from the results. Turbidity was measured continuously at room temperature using THERMOmax ELISA plate reader (Molecular Devices, Sunnyvale Calif.).

[4] = Fourier transform infrared spectroscopy of aged peptides (Example 11); conditions: Calcitonin-derived peptides
Description: Fourier Transform Infrared Spectroscopy—Infrared spectra were recorded using a Nicolet Nexus 470 FT-IR spectrometer with a DTGS detector. Samples of aged peptide solutions, taken from turbidity assay, were suspended on a CaF2 widows (Sigma)-plate and dried by vacuum. The peptide deposits were resuspended with […] and subsequently dried to form thin films. The resuspension procedure was repeated twice to ensure maximal hydrogen to deuterium exchange. The measurements were taken using a 4 cm^−1 resolution and 2000 scans averaging. The transmittance minima values were determined by the OMNIC analysis program (Nicolet).

[5] = hIAPP peptide fragments, 8 mg/ml aged at least one day
[6] = Medin-derived peptides, aged 4 days
[7] = Calcitonin-derived peptides, 0.02M NaCl, 0.01M Tris pH 7.2, aged 2 days

In the case of ERGFF, the “fibrilar supramolecular ultrastructures by electron microscopy” value (“fibrilar supramolecular ultrastructures” below) [1] is reported as “filamentous structures were observed”.

In the case of FENKF, the “fibrilar supramolecular ultrastructures” value [1] is reported as “filamentous structures were observed”.

With FLVHS the “Congo Red birefringence” value [2, 5] was “typical birefringence”, the “structures by electron microscopy” value [1, 5] was “large broad ribbon-like fibrils” and the “turbidity at 405 nm” value ([3]; hIAPP peptide fragments, 8 mg/ml, 8% DMSO, monitored two hours) was “high turbidity”.

With GLVFVS the “fibrilar supramolecular ultrastructures” value [1] was “filamentous structures were observed”.

For GTFQIN, the “fibrilar supramolecular ultrastructures” value [1] was “filamentous structures were observed”.

In the case of H-NAGSVQ-OH, the “Congo Red birefringence” value ([2]; Medin-derived peptides) is reported as “some degree of birefringence could still be detected”, the “structures by electron microscopy” value [1, 6] is reported as “no clear fibrillar structures could be detected” and the “turbidity at 405 nm” value ([3]; Medin-derived peptides) is reported as “significantly lower turbidity”.

With LFNQTG the “fibrilar supramolecular ultrastructures” value [1] was “filamentous structures were observed”.

For LQNFTL, the “fibrilar supramolecular ultrastructures” value [1] was “filamentous structures were observed”.

In the case of NFGAILSS, the “structures by electron microscopy” value ([1]; hIAPP 22-29 and analogues, five days of incubation) is reported as “well-ordered fibrils” and the “turbidity at 405 nm” value ([3]; hIAPP 22-29 and hydrophobic analogues, up to 24 hours) is reported as “significant increase in turbidity”.

In the case of “NFGSVQFV [published amyloidogenic octapeptide of Medin, reference compound]”, the “Congo Red birefringence” value ([2]; Medin-derived peptides) is reported as “significant birefringence”, the “structures by electron microscopy” value [1, 6] is reported as “Fibrillar structures were clearly seen” and the “turbidity at 405 nm” value ([3]; Medin-derived peptides) is reported as “too fast to be measured”.

With NH2- FNKF-COOH (H-FNKF-OH) the “Congo Red birefringence” value ([2]; Calcitonin-derived peptides) was “lower but significant”, the “structures by electron microscopy” value [1, 7] was “only amorphous aggregates could be found” and the “secondary structure by FT-IR (amide I)” value [4] was “typical of a non-ordered structure”.

With NH2-DFN -COOH (H-Asp-Phe-Asn-OH) the “Congo Red birefringence” value ([2]; Calcitonin-derived peptides) was “lower but significant”, the “structures by electron microscopy” value [1, 7] was “more ordered structures” and the “secondary structure by FT-IR (amide I)” value [4] was “consistent with a mixture of β-sheet and random structures”.

With NH2-DFNK -COOH (H-DFNK-OH) the “Congo Red birefringence” value ([2]; Calcitonin-derived peptides) was “lower level of birefringence”, the “structures by electron microscopy” value [1, 7] was “also formed fibrillar structures” and the “secondary structure by FT-IR (amide I)” value [4] was “less typical of a β-sheet structure”.

In the case of NH2-DFNKF-COOH (H-DFNKF-OH), the “Congo Red birefringence” value ([2]; Calcitonin-derived peptides) is reported as “clear and strong”, the “structures by electron microscopy” value [1, 7] is reported as “clearly seen with high frequency” and the “secondary structure by FT-IR (amide I)” value [4] is reported as “consistent with anti-parallel β-sheet structure”.

With NH2-FGSV -COOH (H-FGSV-OH) the “Congo Red birefringence” value ([2]; Medin-derived peptides) was “no birefringence”, the “structures by electron microscopy” value [1, 6] was “no fibrillar structures could be found” and the “turbidity at 405 nm” value ([3]; Medin-derived peptides) was “gradual increase in turbidity”.

In the case of NH2-FGSVQ -COOH (H-FGSVQ-OH), the “Congo Red birefringence” value ([2]; Medin-derived peptides) is reported as “no birefringence”, the “structures by electron microscopy” value [1, 6] is reported as “somewhat fibrillar and ordered structure could be seen” and the “turbidity at 405 nm” value ([3]; Medin-derived peptides) is reported as “gradual increase in turbidity”.

In the case of NH2-GSVQ -COOH (H-GSVQ-OH), the “Congo Red birefringence” value ([2]; Medin-derived peptides) is reported as “unexpected high level of birefringence” and the “structures by electron microscopy” value [1, 6] is reported as “no fibrillar structures could be found”.

For NH2-NFGSV -COOH (H-NFGSV-OH), the “Congo Red birefringence” value ([2]; Medin-derived peptides) was “very low degree of birefringence”, the “structures by electron microscopy” value [1, 6] was “network of fibrous structures” and the “turbidity at 405 nm” value ([3]; Medin-derived peptides) was “highest degree of aggregation within minutes of incubation”.

With NH2-NFGSVQ -COOH (H-NFGSVQ-OH) the “Congo Red birefringence” value ([2]; Medin-derived peptides) was “characteristic bright and strong green-gold birefringence”, the “structures by electron microscopy” value [1, 6] was “Fibrillar structures were clearly seen” and the “turbidity at 405 nm” value ([3]; Medin-derived peptides) was “gradual increase in turbidity”.

For RALDFA, the “fibrilar supramolecular ultrastructures” value [1] was “filamentous structures were observed”.

For RDFLDR, the “fibrilar supramolecular ultrastructures” value [1] was “filamentous structures were observed”.

With SFFSFL (also: EG modification) the “fibrilar supramolecular ultrastructures” value [1] was “filamentous structures were observed”.

With SFNNG (also: EG modification) the “fibrilar supramolecular ultrastructures” value [1] was “filamentous structures were observed”.

With SGIFTN (also: EG modification) the “fibrilar supramolecular ultrastructures” value [1] was “filamentous structures were observed”.

With SNFLN (also: EG modification) the “fibrilar supramolecular ultrastructures” value [1] was “filamentous structures were observed”.

For TLIFGG (also: EG modification), the “fibrilar supramolecular ultrastructures” value [1] was “filamentous structures were observed”.
